Assay results: article PMC8406188 (mBio, 2021)
Where “and” joins values, the source holds several entries; their conditions need not be identical. Identical values can stand only once. Each block holds one molecule with its values, some of them ahead of it.

Experiments:
[1] = target: OmpC(K255am) with benzoyl phenylalanine (Bpa) at residue 255 (E. coli) (UniProt P06996); experiment: SDS-PAGE of unheated and heated samples (heat-sensitive oligomers); OmpC amber mutants synthesized in PURExpress lacking release factor 1 with FluoroTect, tRNATAG-BPA, SurA, Rc LPS and Bam POPC proteoliposomes; 30 min, 30°C; with or without UV
[2] = target: OmpC(K281am) with benzoyl phenylalanine (Bpa) at residue 281 (E. coli) (UniProt P06996); experiment: as above
[3] = target: the molecule itself; experiment: SDS-PAGE of unheated and heated samples (heat-sensitive oligomers), with proteinase K; OmpC synthesized in PURExpress with FluoroTect, SurA, smooth LPS from E. coli O55:B5 (0.5 mg/ml) and Bam DLPC proteoliposomes; 30 min, 37°C
[4] = target: the molecule itself; experiment: SDS-PAGE of unheated samples (oligomers), colloidal blue staining; urea-denatured OmpC folded into 1% DDM-0.4% DDG, 50 mM Tris pH 8.0, 1 mM DTT, 0.1 mM EDTA; 37°C, 24 h
[5] = target: the molecule itself; experiment: SDS-PAGE of unheated and heated samples (heat-sensitive oligomers), with proteinase K; 0.2 μM urea-denatured OmpC S71C-BODIPY-FL added to SurA, Bam proteoliposomes (text: Bam DLPC; legend: Bam DMPC) and Rc LPS in a complete mixture of PURExpress components; 30 min, 37°C

stoichiometry N [1]: 3
Molecule: OmpC(K255am) with benzoyl phenylalanine (Bpa) at residue 255 (from UniProt P06996 22-367) (natural protein)

stoichiometry N [2]: 3
Molecule: OmpC(K281am) with benzoyl phenylalanine (Bpa) at residue 281 (from UniProt P06996 22-367) (natural protein)

B1: E. coli OmpC (wild type), synthesized in vitro without its signal peptide (natural protein, UniProt P06996 22-367, looked up)
chain: AEVYNKDGNKLDLYGKVDGLHYFSDNKDVDGDQTYMRLGFKGETQVTDQLTGYGQWEYQIQGNSAENENNSWTRVAFAGLKFQDVGSFDYGRNYGVVYDVTSWTDVLPEFGGDTYGSDNFMQQRGNGFATYRNTDFFGLVDGLNFAVQYQGKNGNPSGEGFTSGVTNNGRDALRQNGDGVGGSITYDYEGFGIGGAISSSKRTDAQNTAAYIGNGDRAETYTGGLKYDANNIYLAAQYTQTYNATRVGSLGWANKAQNFEAVAQYQFDFGLRPSLAYLQSKGKNLGRGYDDEDILKYVDVGATYYFNKNMSTYVDYKINLLDDNQFTRDAGINTDNIVALGLVYQF
modifications: fluorescent lysine residues (BODIPY-FL at the ε position, from FluoroTect GreenLys) incorporated during synthesis
stoichiometry N [3]: 2 and 3

B2: Urea-denatured wild-type OmpC purified from inclusion bodies (natural protein, E. coli, UniProt P06996 22-367, looked up)
chain: AEVYNKDGNKLDLYGKVDGLHYFSDNKDVDGDQTYMRLGFKGETQVTDQLTGYGQWEYQIQGNSAENENNSWTRVAFAGLKFQDVGSFDYGRNYGVVYDVTSWTDVLPEFGGDTYGSDNFMQQRGNGFATYRNTDFFGLVDGLNFAVQYQGKNGNPSGEGFTSGVTNNGRDALRQNGDGVGGSITYDYEGFGIGGAISSSKRTDAQNTAAYIGNGDRAETYTGGLKYDANNIYLAAQYTQTYNATRVGSLGWANKAQNFEAVAQYQFDFGLRPSLAYLQSKGKNLGRGYDDEDILKYVDVGATYYFNKNMSTYVDYKINLLDDNQFTRDAGINTDNIVALGLVYQF
stoichiometry N [4]: 3

B3: Urea-denatured OmpC S71C, fluorescently labeled at residue 71 with BODIPY-FL (natural protein, E. coli, UniProt P06996 22-367, looked up)
chain: AEVYNKDGNKLDLYGKVDGLHYFSDNKDVDGDQTYMRLGFKGETQVTDQLTGYGQWEYQIQGNSAENENNCWTRVAFAGLKFQDVGSFDYGRNYGVVYDVTSWTDVLPEFGGDTYGSDNFMQQRGNGFATYRNTDFFGLVDGLNFAVQYQGKNGNPSGEGFTSGVTNNGRDALRQNGDGVGGSITYDYEGFGIGGAISSSKRTDAQNTAAYIGNGDRAETYTGGLKYDANNIYLAAQYTQTYNATRVGSLGWANKAQNFEAVAQYQFDFGLRPSLAYLQSKGKNLGRGYDDEDILKYVDVGATYYFNKNMSTYVDYKINLLDDNQFTRDAGINTDNIVALGLVYQF
modifications: BODIPY-FL maleimide on the cysteine at 71
stoichiometry N [5]: 2 and 3
